Entries after “also recorded” stand apart in the source; their conditions may differ. Each block holds one molecule with its values, some of them ahead of it. Where a SMILES comes first, the peptide text is derived from it. Where no end group is shown, it is not given here. [ ]: non-standard residue; d: D form. The star is where a group is joined. His(π-(CH2)8Ph) = N[C@@H](Cc1cncn1CCCCCCCCc1ccccc1)C(=O)O; Abu(3R-Me,4-PO3H2) = C[C@@H](CP(=O)(O)O)[C@H](N)C(=O)O; CH3O(CH2CH2O)7C2H4CO = COCCOCCOCCOCCOCCOCCOCCOCCC(=O)*; pT = C[C@@H](OP(=O)(O)O)[C@H](N)C(=O)O; PEG = not defined here
Columns and labels:
[1] = biological target: T1, Plk2 (Mus musculus, UniProt P53351, K108M); test: Peptide pull-down assay with bead-immobilized peptides, Plk2; format: binding
T1 construct: expressed in transfected cells
T1 sequence (P53351 whole entry K108M): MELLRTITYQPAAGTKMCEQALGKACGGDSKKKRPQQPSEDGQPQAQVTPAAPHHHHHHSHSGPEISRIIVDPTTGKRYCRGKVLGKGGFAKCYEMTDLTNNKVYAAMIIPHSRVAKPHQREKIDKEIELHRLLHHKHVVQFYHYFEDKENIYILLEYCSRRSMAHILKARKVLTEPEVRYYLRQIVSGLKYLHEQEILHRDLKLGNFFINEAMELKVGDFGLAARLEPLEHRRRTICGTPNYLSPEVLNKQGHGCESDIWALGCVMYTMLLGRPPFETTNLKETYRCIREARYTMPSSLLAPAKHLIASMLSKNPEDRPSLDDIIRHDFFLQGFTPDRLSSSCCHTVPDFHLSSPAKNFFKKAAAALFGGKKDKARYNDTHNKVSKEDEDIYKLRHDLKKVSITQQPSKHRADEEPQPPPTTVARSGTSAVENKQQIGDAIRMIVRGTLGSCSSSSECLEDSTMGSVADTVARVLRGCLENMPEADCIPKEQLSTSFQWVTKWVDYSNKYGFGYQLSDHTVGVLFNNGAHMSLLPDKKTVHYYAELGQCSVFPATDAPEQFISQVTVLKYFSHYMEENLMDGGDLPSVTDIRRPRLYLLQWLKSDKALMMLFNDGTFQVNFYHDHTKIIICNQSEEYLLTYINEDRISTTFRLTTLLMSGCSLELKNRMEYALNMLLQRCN
Description: After incubating the cell lysates prepared in TBSN buffer {20 mM Tris-Cl (pH8.0), 150 mM NaCl, 0.5% Np-40, 5 mM EGTA, 1.5 mM EDTA, 20 mM p-nitrophenylphosphate and protease inhibitor cocktail (Roche, Nutley, N.J.)} with the bead-immobilized ligands for 2 h at 4° C., the ligand-associating proteins were precipitated, washed, boiled in sodium dodecyl sulfate (SDS) sample buffer, separated by 8% SDS-polyacrylamide gel electrophoresis (PAGE), and then subjected to immunoblotting analysis with anti-Flag antibody and the enhanced chemilunimescence (ECL) detection system (Pierce). The same membrane was also stained with Coomassies (CBB). Signal intensities were quantified using Image J program.
To investigate the binding specificity of p-T78 peptides to various Plks, Flag-Plk1 (K82M), Flag-Plk2(K108M)3 or Flag-Plk3(K52R) (a gift of Wei Dai, New York University School of Medicine, NY) construct was first transfected into HeLa cells. Cellular lysates were prepared as above, mixed, and then incubated in TBSN buffer with the immobilized peptides indicated.

[2] = tested on: HeLa cells; test: Direct treatment of cultured HeLa cells (mitotic arrest, apoptotic cell death, Plk1 localization); format: cell-based; conditions: 200 μM
[3] = biological target: T2, Plk1 (Homo sapiens, UniProt P53350); test: Peptide pull-down assay with bead-immobilized peptides, Plk1; format: binding; conditions: for Plk1 binding / precipitation in pull-down, in words: mitotic cell lysates
T2 construct: we used total lysates prepared from mitotic HeLa cells; endogenous in cells; host or cells: mitotic (nocodazole-arrested) HeLa cells
T2 sequence (P53350 2-603): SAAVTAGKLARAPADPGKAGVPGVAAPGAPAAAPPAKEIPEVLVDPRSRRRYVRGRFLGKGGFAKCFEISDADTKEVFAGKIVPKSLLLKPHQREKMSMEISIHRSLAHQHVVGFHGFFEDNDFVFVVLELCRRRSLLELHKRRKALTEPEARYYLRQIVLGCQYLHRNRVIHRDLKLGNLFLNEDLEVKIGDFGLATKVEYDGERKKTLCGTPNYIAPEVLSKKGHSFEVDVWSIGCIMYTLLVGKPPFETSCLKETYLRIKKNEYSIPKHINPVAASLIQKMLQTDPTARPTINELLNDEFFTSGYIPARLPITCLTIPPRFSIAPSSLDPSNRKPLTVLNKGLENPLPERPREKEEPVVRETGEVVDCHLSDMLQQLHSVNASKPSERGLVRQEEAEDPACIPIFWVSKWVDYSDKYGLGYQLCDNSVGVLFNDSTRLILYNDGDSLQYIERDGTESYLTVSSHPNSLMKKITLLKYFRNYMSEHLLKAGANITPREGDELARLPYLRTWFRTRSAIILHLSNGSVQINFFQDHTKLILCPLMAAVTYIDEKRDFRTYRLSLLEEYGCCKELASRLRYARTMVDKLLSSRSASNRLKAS
Description: For Plk1 pull-down assays with immobilized peptides, we used total lysates prepared from mitotic HeLa cells. […] Cells treated with 200 ng/ml of nocodazole for 16 h were lysed in TBSN buffer {20 mM Tris-Cl (pH8.0), 150 mM NaCl, 0.5% NP-40, 5 mM EGTA, 1.5 mM EDTA, 0.5 mM Na3VO4, 20 mM p-nitrophenyl phosphate, and protease inhibitor cocktail (Roche, Nutley, N.J.)}, and then clarified by centrifugation at 15,000×g for 20 min at 4° C. The resulting lysates were incubated with bead-immobilized peptides (40 μM per binding) for 2 h, precipitated, washed, and then boiled in sodium dodecyl sulfate (SDS) sample buffer to elute the associated proteins. Samples were separated by 10% SDS-polyacrylamide gel electrophoresis (PAGE), and then either stained with silver or transferred to PVDF membrane for immunoblotting analysis with anti-Plk1 antibody using the enhanced chemiluminescence (ECL) detection system (Pierce). […]

[4] = biological target: Plk1 PBD (Homo sapiens, UniProt P53350); test: Isothermal titration calorimetry with recombinant Plk1 PBD; format: binding
Chain of Plk1 PBD (P53350 326-603): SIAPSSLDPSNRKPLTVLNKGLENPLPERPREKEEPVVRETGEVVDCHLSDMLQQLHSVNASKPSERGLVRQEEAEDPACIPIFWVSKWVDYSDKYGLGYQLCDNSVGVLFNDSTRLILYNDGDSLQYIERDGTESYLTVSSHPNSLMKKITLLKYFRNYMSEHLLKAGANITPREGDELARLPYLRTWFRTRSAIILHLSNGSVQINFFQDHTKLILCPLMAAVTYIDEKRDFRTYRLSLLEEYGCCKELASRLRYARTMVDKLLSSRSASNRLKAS

[5] = biological target: Plk1 PBD-p-Cdc25C interaction (Homo sapiens, UniProt P53350); test: Competition of the PBD-p-Cdc25C interaction in mitotic HeLa lysates; format: binding; conditions: GST-PBD
Chain of Plk1 PBD-p-Cdc25C interaction (P53350 326-603 limits assumed): as the sequence (P53350 326-603) above
Description: For p-Cdc25C pull-down assays, either bead-bound GST-PBD or the corresponding GST-PBD(H538A K540M) mutant was incubated with mitotic HeLa lysates in TBSN buffer supplemented with 2 mM DTT. To test the ability of the indicated peptides to compete the PBD-p-Cdc25C interaction, lysates were pre-incubated with GST-PBD for 1.5 h prior to the addition of the indicated peptides. Lysates were then incubated for additional 1.5 h, washed in the binding buffer, and then analyzed. For competition of the interaction between p-Cdc25C and endogenous Plk1, mitotic lysates were prepared in TBSN and incubated with the indicated peptides for 1 h before subjecting to immunoprecipitation with anti-Plk1 antibody.

[6] = biological target: recombinant Plk1 PBD (full length PBD, calorimetry) (UniProt P53350); test: ITC, 25 C; 5-mer LHSpTA (SEQ ID NO: 3)
Chain of recombinant Plk1 PBD (full length PBD, calorimetry) (P53350 326-603 limits assumed): as the sequence (P53350 326-603) above

[7] = biological target: T3, Plk2 PBD (Homo sapiens, UniProt Q9NYY3); test: Isothermal titration calorimetry with recombinant Plk2 PBD; conditions: titrated into Plk2 PBD
T3 sequence (Q9NYY3 373-685): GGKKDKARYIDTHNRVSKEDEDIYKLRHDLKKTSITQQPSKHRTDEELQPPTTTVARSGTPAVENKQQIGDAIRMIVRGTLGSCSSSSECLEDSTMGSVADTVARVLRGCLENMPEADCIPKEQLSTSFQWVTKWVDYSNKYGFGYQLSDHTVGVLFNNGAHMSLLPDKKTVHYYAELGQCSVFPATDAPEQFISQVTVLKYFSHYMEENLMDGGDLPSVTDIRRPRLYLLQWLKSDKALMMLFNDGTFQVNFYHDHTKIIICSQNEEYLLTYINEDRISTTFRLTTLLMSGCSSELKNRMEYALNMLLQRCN

[8] = tested on: HeLa cells; test: Microinjection of peptides into HeLa cells; format: cell-based; conditions: for Plk1 localization at centrosomes and kinetochores: microinjection; for mitotic arrest / cell cycle effect, in words: peptide introduced into the cells
Description: HeLa cells were cultured as subconfluent monolayers under the conditions recommended by American Type Culture Collection (Manassas, Va.). […] No mitotic exit was observed during the period of 10 min BMI-1026 treatment. For microinjection experiments with the Pmab-containing mimetic peptides, cells were arrested for 16 h with 2.5 mM thymidine (Sigma) and released into fresh medium. Two hours after release from the S phase block, the indicated peptides (2.5 mM stock in PBS) were microinjected into the cells using Eppendorf® Transjector 5246 (Eppendorf®, Westbury, N.Y.) at the 150 hPa pressure level and the 0.5 second injection time. All the cells in a single grid were injected and then further incubated to monitor cell cycle progression. For microinjection experiments with the F2Pmab-containing mimetic peptides, cells were arrested with 2.5 mM thymidine for 16 h twice with a 9 h release interval, and then released into fresh medium. Seven hours after release from the G1/S phase block, the indicated peptides (4 mM stock in PBS) were microinjected similarly as above. Where indicated, peptides containing the final concentration of 30 ng/μl of pEGFP-C1 vector (Clontech®, Mountain View, Calif.) were used to visualize the injected cells.
Four hours after microinjection, cells were fixed and subjected to immunostaining analyses as described below.
Similar methods were used for the experiments shown in FIG. 16 using the peptides indicated. HeLa cells were arrested at the G1/S boundary by double thymidine treatment and released into fresh medium. […] Co-injected EGFP plasmid provided a convenient marker to identify the microinjected cells.
Indirect immunostaining was carried out as described previously (5) using anti-Plk1 antibody (Santa Cruz Biotechnologies, Santa Cruz, Calif.) and anti-CREST antiserum (Cortex Biochem, San Leandro, Calif.). All the appropriate secondary antibodies were purchased from Jackson ImmunoResearch Laboratories, Inc. (West Grove, Pa.). Biotinylated F2Pmab-positive cells were detected by co-staining with FITC-conjugated Streptavidin (Invitrogen®, Carlsbad, Calif.). Chromosomes were visualized with 4′,6-diamidino-2-phenylindole (DAPI) (Sigma). Digital images were collected with a Zeiss LSM510 confocal microscope. For the quantification of the fluorescence signal intensities, images of unsaturated fluorescence signals were acquired with the same laser intensity at 512×512 pixels and 12-bit resolution. Fluorescence intensities for localized signals were determined after subtracting the background signal intensities using Zeiss AIM confocal software.

[9] = biological target: T4, Flag-Plk3 (K52R) (UniProt Q9H4B4 40-646, K52R); test: pull-down with bead-immobilized peptide, mixed Flag-Plk1/2/3 lysates (293T)
T4 construct: In lysates of transfected cells
T4 sequence (Q9H4B4 40-646 K91R): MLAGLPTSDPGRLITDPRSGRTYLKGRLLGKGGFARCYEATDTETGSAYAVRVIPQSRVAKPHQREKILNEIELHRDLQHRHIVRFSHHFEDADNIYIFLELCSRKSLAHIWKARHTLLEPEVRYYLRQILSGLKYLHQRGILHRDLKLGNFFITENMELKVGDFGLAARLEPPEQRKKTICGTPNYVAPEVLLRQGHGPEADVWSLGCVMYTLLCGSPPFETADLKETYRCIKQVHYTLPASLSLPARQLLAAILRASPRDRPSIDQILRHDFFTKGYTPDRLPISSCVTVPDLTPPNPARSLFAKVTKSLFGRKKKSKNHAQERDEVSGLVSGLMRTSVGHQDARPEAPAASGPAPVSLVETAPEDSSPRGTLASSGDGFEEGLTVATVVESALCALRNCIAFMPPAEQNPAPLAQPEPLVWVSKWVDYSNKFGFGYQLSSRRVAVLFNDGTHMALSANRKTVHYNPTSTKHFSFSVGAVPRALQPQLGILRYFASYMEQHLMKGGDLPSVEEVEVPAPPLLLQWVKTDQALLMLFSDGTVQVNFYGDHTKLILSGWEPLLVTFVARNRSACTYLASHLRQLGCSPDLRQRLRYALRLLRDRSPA

[10] = biological target: Plk1 PBD (construct and assay format not stated at these places) (UniProt P53350); test: assay not given
Chain of Plk1 PBD (construct and assay format not stated at these places) (P53350 326-603 limits assumed): as the sequence (P53350 326-603) above

[11] = biological target: Plk1 (endogenous, HeLa cells) (UniProt P53350); test: pull-down with bead-immobilized peptide, mitotic HeLa lysate
Chain of Plk1 (endogenous, HeLa cells) (P53350 2-603 limits assumed): as the sequence (P53350 2-603) above

Molecule: CSCC[C@H](N)C(=O)N[C@@H](CCC(N)=O)C(=O)N[C@@H](CO)C(=O)N[C@H](C(=O)N1CCC[C@H]1C(=O)N[C@@H](CC(C)C)C(N)=O)[C@@H](C)OP(=O)(O)O [MQSpTPL, reference compound]
- Plk2 precipitation as efficiency of Plk1 precipitation ([1]; lysates with similar levels of Plk1, Plk2, Plk3): ~27%

Molecule: COCCOCCOCCOCCOCCOCCOCCOCCC(=O)N1CCC[C@H]1C(=O)N[C@@H](CC(C)C)C(=O)N[C@@H](Cc1cnc[nH]1)C(=O)N[C@@H](C)C(=O)N[C@H](C(N)=O)[C@@H](C)CP(=O)(O)O [PEG-1* (S/A)] ({CH3O(CH2CH2O)7C2H4CO}-PLHA[Abu(3R-Me,4-PO3H2)]-NH2)
- Plk1 delocalization and misaligned chromosomes [2]: not
- mitotic arrest / apoptotic cell death / cellular response [2]: not

Molecule: COCCOCCOCCOCCOCCOCCOCCOCCC(=O)N1CCC[C@H]1C(=O)N[C@@H](CC(C)C)C(=O)N[C@@H](Cc1cnc[nH]1)C(=O)N[C@@H](CO)C(=O)N[C@H](C(N)=O)[C@@H](C)CP(=O)(O)O [PEG-1*]
- Plk1 delocalization and misaligned chromosomes [2]: only mild Plk1 delocalization with a moderate level of misaligned chromosomes
- mitotic arrest / apoptotic cell death / cellular response [2]: weak but significant level of mitotic arrest

Molecule: COCCOCCOCCOCCOCCOCCOCCOCCC(=O)N1CCC[C@H]1C(=O)N[C@@H](CC(C)C)C(=O)N[C@@H](Cc1cncn1CCCCCCCCc1ccccc1)C(=O)N[C@@H](C)C(=O)N[C@H](C(N)=O)[C@@H](C)CP(=O)(O)O [PEG-4j* (S/A)] ({CH3O(CH2CH2O)7C2H4CO}-PL[His(π-(CH2)8Ph)]A[Abu(3R-Me,4-PO3H2)]-NH2)
- Plk1 delocalization and misaligned chromosomes [2]: not
- mitotic arrest / apoptotic cell death / cellular response [2]: did not

Molecule: HSpT: "HSpT lacking both the Pro and Leu residues" (His-Ser-[pT])
- Plk1 binding / precipitation in pull-down, in words [3]: did not exhibit any significant level of binding

Molecule: HSpTA: 4-mer p-T78 peptide "HSpTA (SEQ ID NO: 15)" (HS[pT]A)
- Plk1 binding / precipitation in pull-down, in words [3]: bound to Plk1 better than SpTAI
- binding affinity by calorimetry, in words [4]: much lower affinities
- disruption of the pre-formed PBD-p-Cdc25C complex [5]: disrupted the complex weakly

Molecule: LHSpTA (peptide)
- Kd [6]: 450 nM

Molecule: LHSpTAI: "the analogous p-T78 peptide (LHSpTAI (SEQ ID NO: 17))" (LHS[pT]AI)
- Plk1 binding / precipitation in pull-down, in words [3]: equivalent to that of the former
- binding affinity by calorimetry, in words [4]: slightly higher affinities than the 5-mer peptides

Molecule: MLHSpT: "a Pro-4 to Met-4 mutant, MLHSpT (SEQ ID NO: 18)" (MLHS[pT])
- Plk1 binding / precipitation in pull-down, in words [3]: greatly diminished level of Plk1 PBD binding

Molecule: Pmab(S77A): the S77A mutants of the Pmab- and the F2Pmab-containing peptides (24 and 26, respectively) (PLHA[Abu(3R-Me,4-PO3H2)])
- Plk1 localization at centrosomes and kinetochores [8]: not
- mitotic arrest / cell cycle effect, in words [8]: not

Molecule: non-phospho T78 peptide: "the respective non-phospho PLHST (SEQ ID NO: 11) control peptide"
- Plk1 localization at centrosomes and kinetochores [8]: not
- mitotic arrest / cell cycle effect, in words [8]: proceeded through the cell cycle normally

Continued, in another order:

- Plk1 binding / precipitation in pull-down, in words [3]: bound to Plk1 only weakly
Molecule: HSpTAI: "HSpTAI, lacking both Pro and Leu but instead bearing two additional C-terminal residues following the SpT motif" (HS[pT]AI)

- diminished binding affinity to Plk1 relative to PLHSpT [3]: ~7 fold
- Plk1 binding / precipitation in pull-down, in words [3]: bound to Plk1 better than SpTAI
- binding affinity by calorimetry, in words [4]: much lower affinities
- weaker binding than PLHSpT ([4]; assay not given): ~50 fold
Molecule: LHSpT: "LHSpT (SEQ ID NO: 14) lacking the N-terminal Pro" (LHS[pT])
- disruption of the pre-formed PBD-p-Cdc25C complex [5]: much less effective than PLHSpT; also recorded: disrupted the complex weakly

- Plk1 binding / precipitation in pull-down, in words [3]: abolished the Plk1 binding
Molecule: PLHA-Pmab: "a mutation of the invariably required Ser-1 residue to Ala {PLHA-Pmab (SEQ ID NO: 20); in short, Pmab(S77A)}" (PLHA[Abu(3R-Me,4-PO3H2)])

- increase of the level of Plk2 binding ([1]; His-2 to Gln mutant versus PLHSpT): 24 fold
- initial heats of interaction [7]: ~-1.1 kcal/mol
Molecule: PLQSpT: "mutation of the His-2 to Gln"; "the PLQSpT mutant" of parent PLHSpT (PLQS[pT])

- binding result [9]: no binding
B1: PEG-4j* (peptide)
peptide: {PEG}-PLH(Ph‑(CH2)8)S[Abu(3R-Me,4-PO3H2)]
modifications: reading uncertain
notes: T0009: Z = CH2, G = Ph-(CH2)8-, R1 = PEG; also called Cys-PEG-4j* (bead-immobilized form)

- binding result [9]: no binding
Molecule: Ac-PLH(Ph‑(CH2)8)S[pT] (also called peptide 4j; Compound 4j) [4j (Biological Example 1)]

- fold weaker binding than PLHSpT [10]: 50 fold
- fold diminished binding relative to PLHSpT [11]: 7 fold
Molecule: LHS[pT] [LHSpT]

- fold diminished binding affinity [10]: 20 fold
Molecule: Ac-PPHS[pT] [PPHSpT]
